Assay results taken from patent US20250215100A1 (HARBOUR BIOMED SHANGHAI, published 2025).
Positions count from the first letter of the chain named. Numbers in names are those of the source.

B1: PR006498 (antibody, human IgG1, kappa, V domains shown)
VH: QVQLVQSGAEVKKPGASVKVSCKASGYTFAGYYMYWVRQAPGQGLEWMGWINPDSGAPTYAQKFQGRVTMTRDTSISTAYMELSRLRSDDTAVYYCAREKIYYGSGNYYPSFDYWGQGTLVTVSS
VL: DIQLTQSPSFLSASVGDRVTITCRASQGISSYLAWYQQKPGKAPKLLIYAASTLQSGVPSRFSGSGSGTEFTLTISSLQPEDFATYYCQQLISYPWTFGQGTKVEIKR
notes: PR003379 variant L:N92I; human IgG1 L234A, L235A, G237A
B2: PR006510 (antibody, human IgG1, kappa, V domains shown)
VH: B1 VH
VL: B1 VL with I92N, S93R
notes: PR003379 variant L:S93R; human IgG1 L234A, L235A, G237A
B3: PR006504 (antibody, human IgG1, kappa, V domains shown)
VH: B1 VH
VL: B1 VL with I92V
notes: PR003379 variant L:N92V; human IgG1 L234A, L235A, G237A
B4: PR006511 (antibody, human IgG1, kappa, V domains shown)
VH: B1 VH
VL: B1 VL with I92N, S93N
notes: PR003379 variant L:S93N; human IgG1 L234A, L235A, G237A
B5: PR006500 (antibody, human IgG1, kappa, V domains shown)
VH: B1 VH
VL: B1 VL with I92M
notes: PR003379 variant L:N92M; human IgG1 L234A, L235A, G237A
B6: PR006499 (antibody, human IgG1, kappa, V domains shown)
VH: B1 VH
VL: B1 VL with I92W
notes: PR003379 variant L:N92W; human IgG1 L234A, L235A, G237A
B7: PR006502 (antibody, human IgG1, kappa, V domains shown)
VH: B1 VH
VL: B1 VL with I92D
notes: PR003379 variant L:N92D; human IgG1 L234A, L235A, G237A
B8: PR006515 (antibody, human IgG1, kappa, V domains shown)
VH: B1 VH
VL: B1 VL with I92N, S93M
notes: PR003379 variant L:S93M; human IgG1 L234A, L235A, G237A
B9: PR001028 (Selicrelumab) (antibody, human IgG2, kappa, V domains shown)
VH: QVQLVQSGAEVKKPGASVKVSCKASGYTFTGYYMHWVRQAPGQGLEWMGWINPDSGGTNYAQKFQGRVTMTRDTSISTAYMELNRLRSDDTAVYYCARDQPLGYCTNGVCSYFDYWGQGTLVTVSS
VL: DIQMTQSPSSVSASVGDRVTITCRASQGIYSWLAWYQQKPGKAPNLLIYTASTLQSGVPSRFSGSGSGTDFTLTISSLQPEDFATYYCQQANIFPLTFGGGTKVEIKR
notes: CD40 positive control antibody
B10: PR001304 (APX005M) (antibody, human IgG1, kappa)
heavy: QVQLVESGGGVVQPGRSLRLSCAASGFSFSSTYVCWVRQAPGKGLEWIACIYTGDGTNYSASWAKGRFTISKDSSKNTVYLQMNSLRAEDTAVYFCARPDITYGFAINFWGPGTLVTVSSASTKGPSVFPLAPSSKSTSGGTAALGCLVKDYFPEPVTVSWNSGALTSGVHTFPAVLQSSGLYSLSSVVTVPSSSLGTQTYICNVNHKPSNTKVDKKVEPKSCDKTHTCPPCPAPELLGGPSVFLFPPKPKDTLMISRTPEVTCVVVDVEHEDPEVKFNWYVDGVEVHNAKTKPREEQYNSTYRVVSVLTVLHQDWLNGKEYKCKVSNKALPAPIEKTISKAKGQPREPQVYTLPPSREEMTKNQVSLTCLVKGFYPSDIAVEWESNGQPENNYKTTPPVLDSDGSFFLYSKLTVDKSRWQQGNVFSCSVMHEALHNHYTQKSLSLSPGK
light: DIQMTQSPSSLSASVGDRVTIKCQASQSISSRLAWYQQKPGKPPKLLIYRASTLASGVPSRFSGSGSGTDFTLTISSLQPEDVATYYCQCTGYGISWPIGGGTKVEIKRTVAAPSVFIFPPSDEQLKSGTASVVCLLNNFYPREAKVQWKVDNALQSGNSQESVTEQDSKDSTYSLSSTLTLSKADYEKHKVYACEVTHQGLSSPVTKSFNRGEC
notes: as for B9

These binders were tested against T1, human CD40 on cells (human, UniProt P25942 21-277) (assay: FACS, Raji cells).
T1 construct: whole, on cells; The cell line used is named in each row's assay; also called hCD40; TNFRSF5
Source text: (§1) Flow cytometry (FACS) was used to detect the binding ability of the CD40 antibody to cells, such as, CHO-K1/hCD40 highly expressing human CD40 (constructed by Beijing Kyinno Biotechnology), CHO-K1/cyCD40 highly expressing cynomolgus monkey CD40 (constructed by Beijing Kyinno Biotechnology) and lymphoma cell highly expressing human CD40, Raji (ATCC, #CCL-86). Specifically, the cells were digested and resuspended with complete medium (F-12K for CHO-K1 cells; and RPMI-1640 for Raji cells); and the cells were adjusted to a cell density of 1×10⁶ cells/mL. The cells were seeded in a 96-well V-bottom plate (Corning, #3894) at 100 μL/well, and the antigen binding protein to be tested at 2x final concentration was then added at 100 μL/well and mixed evenly, with the highest final concentration of the antigen binding protein of 300 nM, a total of 8 concentrations, and 5-fold concentration gradient dilution. hIgG (Crownbio, #C0002) was used as a negative control, and the positive control molecule was the molecule in Table 1-5. The cells were incubated at 4° C. for 1 hours in the dark. After the incubation, the cells were rinsed twice by adding pre-chilled PBS at 100 μL/well, and centrifuged at 500 g at 4° C. for 5 minutes, and the supernatant was discarded. Then, a fluorescent secondary antibody (goat anti-human IgG (H+L) secondary antibody, Alexa Fluor® 488 conjugate, Invitrogen, #A11013, 1:1000 dilution) was added at 100 µL/well, and the cells were incubated at 4° C. for 30 minutes in the dark. The cells were washed twice with pre-chilled PBS at 200 μL/well, and centrifuged at 500 g at 4° C. for 5 minutes, and the supernatant was discarded. Finally, the cells were resuspended in pre-chilled PBS at 200 μL/well. The fluorescence signal values were read using a BD FACS CANTOII flow cytometer or ACEA NovoCyte flow cytometer, and the data were processed and analyzed using FlowJo v10 software (FlowJo, LLC).
(§2) Data processing and graphical analysis were performed using GraphPad Prism 8 software. The binding curve of the antibody to the target cell and parameters, such as EC50 value were obtained by four-parameter nonlinear fitting.

T1 sequence (P25942 21-277): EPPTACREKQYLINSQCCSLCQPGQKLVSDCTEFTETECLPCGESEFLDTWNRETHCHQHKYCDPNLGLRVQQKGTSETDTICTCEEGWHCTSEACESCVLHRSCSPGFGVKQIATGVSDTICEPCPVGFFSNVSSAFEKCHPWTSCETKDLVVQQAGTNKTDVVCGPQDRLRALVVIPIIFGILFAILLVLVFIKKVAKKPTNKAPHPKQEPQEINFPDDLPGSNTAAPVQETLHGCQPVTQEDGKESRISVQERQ

EC50 [nM] | Maximum MFI [MFI] | Binder
0.344 | 8980 | B1
0.376 | 12400 | B2
0.35 | 12200 | B3
0.386 | 11800 | B4
0.351 | 8980 | B5
0.301 | 8980 | B6
0.287 | 9040 | B7
0.322 | 8900 | B8
0.484 | 2450 | B9

What follows are binders tested against T1, human CD40 on cells (assay: cell-based or functional assay).

EC50 (nM), crosslinked (CHO-K1/hCD32B), HEK293-hCD40-NFkB reporter [nM] | EC50 (nM), uncrosslinked, HEK293-hCD40-NFkB reporter [nM] | Maximum RLU, crosslinked (CHO-K1/hCD32B), HEK293-hCD40-NFkB reporter [RLU] | Maximum RLU, uncrosslinked, HEK293-hCD40-NFkB reporter [RLU] | RLU fold (crosslinked/uncrosslinked) [fold] | Binder
0.042 | 0.355 | 23200 | 11900 | 1.95 | B10
0.0413 | 0.163 | 17000 | 13400 | 1.28 | B9

Molecular target: T1, human CD40 on cells
Test: cell-based or functional assay
Remark: another data set of the same source

EC50 (nM), crosslinked, HEK293-hCD40-NFkB reporter [nM] | EC50 (nM), uncrosslinked, HEK293-hCD40-NFkB reporter [nM] | Fold (EC50 in the absence of crosslinking/EC50 in the presence of crosslinking) [fold] | Maximum fold (fold), crosslinked [fold] | Maximum fold (fold), uncrosslinked [fold] | Binder
0.196 | 0.462 | 2.36 | 5.53 | 4.4 | B1
0.0423 | 0.125 | 2.96 | 4.66 | 4.54 | B2
0.157 | 0.708 | 4.5 | 5.21 | 4.7 | B3
0.16 | 0.815 | 5.1 | 5.19 | 4.5 | B4
0.169 | 0.301 | 1.78 | 5.55 | 4.33 | B5
0.405 | 1.04 | 2.58 | 5.28 | 3.92 | B6
0.17 | 0.321 | 1.88 | 4.95 | 4.63 | B7
0.0669 | 0.268 | 4.01 | 4.91 | 4.54 | B8

Each binder was assayed against T1, human CD40 on cells (assay: FACS, CHO-K1/hCD40 cells).
Source text: as §1, §2

EC50 [nM] | Maximum MFI [MFI] | Binder
4.97 | 77700 | B1
4.98 | 83000 | B2
4.87 | 86000 | B3
4.99 | 79400 | B4
5.01 | 85900 | B5
4.65 | 84200 | B6
4.55 | 88500 | B7
4.59 | 86300 | B8
10.3 | 85000 | B9

These binders were tested against T2, cynomolgus monkey CD40 on cells (cynomolgus monkey, UniProt G7PG38 21-278) (assay: FACS, CHO-K1/cyCD40 cells).
T2 construct: also called cyCD40; CHO-K1/cyCD40
Source text: as §1, §2

T2 sequence (G7PG38 entry or part of it limits assumed): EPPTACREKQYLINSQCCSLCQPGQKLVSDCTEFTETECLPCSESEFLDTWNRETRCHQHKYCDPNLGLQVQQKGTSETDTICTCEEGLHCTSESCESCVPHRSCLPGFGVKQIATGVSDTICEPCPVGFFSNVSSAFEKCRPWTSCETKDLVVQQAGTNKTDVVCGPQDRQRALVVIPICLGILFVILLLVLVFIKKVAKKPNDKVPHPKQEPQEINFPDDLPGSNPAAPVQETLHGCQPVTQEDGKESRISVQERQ

EC50 [nM] | Maximum MFI [MFI] | Binder
4.04 | 47300 | B1
4.55 | 44300 | B2
3.71 | 51000 | B3
3.68 | 40300 | B4
4.4 | 48500 | B5
3.2 | 49800 | B6
3.96 | 47700 | B7
3.75 | 50600 | B8
5.97 | 106000 | B9

What follows are binders tested against T1, human CD40 on cells (assay: FACS, inhibition of human CD40L-his binding to CHO-K1/hCD40 cells).
Description: To detect the effect of CD40 antibodies on the binding of CD40 to CD40L, CHO-K1/hCD40 cells were plated at 2×10⁵/well or 100 μL/well into a 96-well plate (Corning, #3799) and centrifuged, and the supernatant was taken and the dilution solution of the antigen binding protein to be tested was added at 50 μL/well with an initial concentration of 500 nM, 5-fold concentration dilution and a total of 8 concentrations. 20 μg/mL of human CD40L-his protein (Sino biological, #10239-H08E) was added at 50 μL/well, the cells were incubated at 4° C. for 1 hour and then washed 3 times with FACS buffer (1×PBS with 2% FBS). 1:400 diluted anti-histidine tag secondary antibody (GenScript, #A01800) was added, and the cells were incubated at 4° C. for 1 hour, then washed 2 times with FACS buffer, and resuspended in pre-chilled PBS. The fluorescence signal values were read using a BD FACS CANTOII flow cytometer or ACEA NovoCyte flow cytometer, and the data were processed and analyzed using FlowJo v10 software (FlowJo, LLC).
Data processing and graphical analysis were performed using GraphPad Prism 8 software. The curve of the antibody concentration-dependent inhibition rate and parameters, such as IC50 value were obtained by four-parameter nonlinear fitting.

IC50 [nM] | Maximum inhibition rate (%) | Binder
10 | 26 | B10

Each binder was assayed against T3, human CD40 protein (human, UniProt P25942 21-193, limits assumed) (assay: BLI (Octet Red 96e), antibody captured on AHC sensor, human CD40 protein in solution, 1:1 global fit).
T3 construct: the construct is not described
Description: To detect the affinity of CD40 antibodies for antigens such as human CD40 protein, the binding kinetics between antigen and antibody was analyzed using an Octet Red 96e (Fortebio) molecular interaction analyzer by biolayer interferometry (BLI) technique.
For determining the affinity of antibodies for antigens, the rotary speed of the sensor was set at 1000 rpm. […] The AHC sensors were finally regenerated by immersing in a 10 mM glycine-hydrochloric acid solution with pH 1.5 to elute the protein bound to the sensors.
For data analysis using Octet Data Analysis software (Fortebio, version 11.0), 0 nM well was used as the reference well, reference subtraction was performed, “1:1 Global fitting” method was selected for data fitting, the kinetic parameters of the binding of the antigen to the CD40 antibodies were calculated, and the kon (1/Ms) value, kdis (1/s) value and KD (M) value were obtained.

T3 sequence (P25942 21-193 limits assumed): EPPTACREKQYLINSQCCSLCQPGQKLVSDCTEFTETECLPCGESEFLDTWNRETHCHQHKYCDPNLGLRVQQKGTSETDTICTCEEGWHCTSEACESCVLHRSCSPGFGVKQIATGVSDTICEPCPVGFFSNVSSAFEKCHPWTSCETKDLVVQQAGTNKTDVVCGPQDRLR

Kd [nM] | koff [s⁻¹] | kon [M⁻¹ s⁻¹] | Binder
7.14 | 0.00264 | 369000 | B10
4.5 | 0.00048 | 107000 | B9
